From patent US20250296960A1, “PEPTIDE COMPOSITIONS AND METHODS OF USE THEREOF” (priority 2022, published 2025)
Numbered stars: 1 amine (or outer) side, 2 acyl side, 3 side chain; on linkers, the order of the positions; unused ones are H or OH. Square brackets hold non-standard residues; d marks the D form. Side chains are listed from the residue outwards. Ends that are not written are not given here. Peptide text beside a SMILES is read from it. * marks the point of attachment. C18 = C18 fatty acid (C16-C22 fatty acids conjugated via γGlu/8-amino-3,6-dioxaoctanoic acid spacers); C20 = C20 fatty acid moiety (of 2OEG-γGlu-C20, K**); C20 diacid = O=C(O)CCCCCCCCCCCCCCCCCCC(=O)*; γGlu = O=C(O)[C@H](CCC(=O)[*:2])N[*:1]; αMeR = C[C@](N)(CCCNC(=N)N)C(=O)O; AEEA = NCCOCCOCC(=O)O; Aib = CC(C)(N)C(=O)O

T1: human glucose-dependent insulinotropic polypeptide receptor (GIPR), expressed on CHO-K1 cells (human, UniProt P48546 22-466)
T1 sequence (looked up): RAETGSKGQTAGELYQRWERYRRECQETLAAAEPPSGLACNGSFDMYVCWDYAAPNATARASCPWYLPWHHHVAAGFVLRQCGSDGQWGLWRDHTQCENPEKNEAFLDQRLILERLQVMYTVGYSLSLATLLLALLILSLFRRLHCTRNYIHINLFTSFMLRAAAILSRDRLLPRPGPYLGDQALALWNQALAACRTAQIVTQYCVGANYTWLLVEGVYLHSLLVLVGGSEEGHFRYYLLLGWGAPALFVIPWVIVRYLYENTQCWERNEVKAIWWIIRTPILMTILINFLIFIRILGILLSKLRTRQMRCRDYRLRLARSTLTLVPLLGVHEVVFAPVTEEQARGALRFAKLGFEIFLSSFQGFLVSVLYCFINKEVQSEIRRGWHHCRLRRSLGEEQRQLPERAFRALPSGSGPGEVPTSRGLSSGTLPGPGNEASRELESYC


Columns and labels:
[1] = In vivo efficacy in CDA-HFD (NASH) mice, 4 weeks; conditions: Example 16; for body weight compared to vehicle-treated control, in words: 20 nmol/kg s.c. Q2D, 4 weeks; for liver enzymes and liver steatosis compared to vehicle-treated control, in words: end of treatment
Experimental: This study was conducted to evaluate the efficacy of SEQ ID NOs. […] SEQ ID NOs. The peptides were delivered at 0.02% PS80 in PBS and dosing volume was 10 mL/kg. Control group was administered by vehicle without peptide.
Body weight changes were monitored Q2D; serum chemistry (end); hepatic TG (end); and histological analysis (end). […]

[2] = rat, in vivo, iv, 100 nmol/kg
Experimental: This study was conducted to evaluate the PK profile of SEQ ID NOs. 77, 102, and 103 and compare the PK profile by the different lipidated structure of peptides in rat plasma by IV administration. SEQ ID NOs. The peptides were delivered at 0.02% PS80 in PBS and dosing volume was 2.5 mL/kg.
The animals were not fasted prior to dosing. 0.2-0.4 mL of whole blood was taken from vein at each time point (0.167, 0.5, 1, 2, 4, 6, 8, 24, and 48 hr after administration) and transferred into the heparin coated tube.
The resulting plasma of 0.1-0.2 mL obtained by centrifugation of the blood samples was transferred into the tube and stored at −70° C. until analysis. The concentrations of peptides in plasma were determined by LC-MS/MS analysis.

[3] = In vivo efficacy in mAMLN (obese and NASH) mice, 4 weeks; conditions: after 4 weeks
[4] = biological target: T1, human glucose-dependent insulinotropic …; assay: cell-based or functional assay
[5] = biological target: human glucagon receptor (GCGR), expressed on CHO-K1 cells (human, UniProt P47871 26-477); assay: cell-based or functional assay
[6] = biological target: T2, human GLP-1 receptor (GLP-1R), expressed on CHO-K1 cells (human, UniProt P43220 24-463); assay: cell-based or functional assay
[7] = biological target: T1, human glucose-dependent insulinotropic …; assay: cell-based or functional assay; remark: listed apart in the source
[8] = biological target: T2, human GLP-1 receptor (GLP-1R), …; assay: cell-based or functional assay; remark: listed apart in the source

human glucagon receptor (GCGR), expressed on CHO-K1 cells, sequence (P47871 26-477): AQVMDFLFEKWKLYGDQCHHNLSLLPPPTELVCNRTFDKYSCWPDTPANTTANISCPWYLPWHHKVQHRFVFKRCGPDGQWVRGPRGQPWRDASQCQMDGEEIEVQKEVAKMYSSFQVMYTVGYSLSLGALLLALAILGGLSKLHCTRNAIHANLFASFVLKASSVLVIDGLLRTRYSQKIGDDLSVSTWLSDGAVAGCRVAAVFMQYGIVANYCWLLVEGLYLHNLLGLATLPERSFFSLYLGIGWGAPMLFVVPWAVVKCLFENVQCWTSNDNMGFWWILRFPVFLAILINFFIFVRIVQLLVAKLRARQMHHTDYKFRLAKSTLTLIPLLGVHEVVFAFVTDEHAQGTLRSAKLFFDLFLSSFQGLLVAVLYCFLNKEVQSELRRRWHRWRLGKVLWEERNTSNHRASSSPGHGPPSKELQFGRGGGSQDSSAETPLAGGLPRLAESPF

Molecule	Ratio vs. GLP-1R [4]	Relative % to native ligand [4] [%]	Ratio vs. GLP-1R [5]	Relative % to native ligand [5] [%]	Ratio vs. GLP-1R [6]	Relative % to native ligand [6] [%]	also measured
CSCC[C@H](NC(=O)[C@H](Cc1ccc(O)cc1)NC(=O)[C@H](CC(=O)O)NC(=O)[C@H](CC(C)C)NC(=O)[C@H](CC(C)C)NC(=O)[C@H](CCCCNC(=O)COCCOCCNC(=O)COCCOCCNC(=O)CC[C@H](NC(=O)CCCCCCCCCCCCCCCCCCC(=O)O)C(=O)O)NC(=O)[C@H](CO)NC(=O)[C@H](Cc1ccc(O)cc1)NC(=O)[C@H](CC(=O)O)NC(=O)[C@H](CO)NC(=O)[C@@H](NC(=O)[C@H](Cc1ccccc1)NC(=O)[C@@H](NC(=O)CNC(=O)[C@H](CCC(N)=O)NC(=O)C(C)(C)NC(=O)[C@@H](N)Cc1ccc(O)cc1)[C@@H](C)O)[C@@H](C)O)C(=O)N[C@@H](CCSC)C(=O)N[C@@H](CCC(N)=O)C(=O)N[C@@H](CCCNC(=N)N)C(=O)N[C@@H](CC(=O)O)C(=O)N[C@@H](Cc1ccccc1)C(=O)N[C@H](C(=O)N[C@@H](CCC(N)=O)C(=O)N[C@@H](Cc1c[nH]c2ccccc12)C(=O)N[C@@H](CC(C)C)C(=O)N[C@@H](CC(C)C)C(=O)N[C@@H](CCC(=O)O)C(=O)NCC(=O)NCC(=O)N1CCC[C@H]1C(=O)N[C@@H](CO)C(=O)N[C@@H](CO)C(=O)NCC(=O)N[C@@H](C)C(=O)N1CCC[C@H]1C(=O)N1CCC[C@H]1C(=O)N1CCC[C@H]1C(=O)N[C@@H](CO)C(N)=O)C(C)C [compound 103] (H-Y[Aib]QGTFTSDYSK([AEEA-AEEA-γGlu-C20 diacid])LLDYMMQRDFVQWLLEGGPSSGAPPPS-NH2; N-terminus and C-terminus assumed)	–	–	–	–	–	–	efficacy in the NASH model, in words [1]: superior efficacy compared to SEQ ID NO. 77; hepatic steatosis score compared to CDA-HFD control, in words [1]: significantly reduced; scores of hepatocytes inflammation and NAS score, in words [1]: statistically reduced; body weight compared to vehicle-treated control, in words [1]: reduce body weight; liver enzymes and liver steatosis compared to vehicle-treated control, in words [1]: reduce liver enzymes and liver steatosis significantly; AUCinf/dose [2]: 629.51 ± 76.87 kg·h/L; half-life [2]: 575 ± 79.2 min
97 (Y[Aib]QGTFTSDYSK([AEEA-AEEA-γGlu-C18])YLDYMMQRDFVK(N‑Biotinoyl‑N'‑(6-maleimidohexanoyl)hydrazide)WLLEGGPSSGAPPPS-NH2) [compound 97]	–	–	–	–	–	–	NAS score, in words [3]: statistically decreased more than the level of tirzepatide; hepatic steatosis (histological score), in words [3]: significantly reduced; liver weight, visceral fat weight, liver enzymes, and liver steatosis compared to vehicle-treated control, in words [3]: significantly reduced
CSCC[C@H](NC(=O)[C@H](Cc1ccc(O)cc1)NC(=O)[C@H](CC(=O)O)NC(=O)[C@H](CC(C)C)NC(=O)[C@H](CC(C)C)NC(=O)[C@H](CCCCNC(=O)COCCOCCNC(=O)CC[C@H](NC(=O)CCCCCCCCCCCCCCCCCCC(=O)O)C(=O)O)NC(=O)[C@H](CO)NC(=O)[C@H](Cc1ccc(O)cc1)NC(=O)[C@H](CC(=O)O)NC(=O)[C@H](CO)NC(=O)[C@@H](NC(=O)[C@H](Cc1ccccc1)NC(=O)[C@@H](NC(=O)CNC(=O)[C@H](CCC(N)=O)NC(=O)C(C)(C)NC(=O)[C@@H](N)Cc1ccc(O)cc1)[C@@H](C)O)[C@@H](C)O)C(=O)N[C@@H](CCSC)C(=O)N[C@@H](CCC(N)=O)C(=O)N[C@@H](CCCNC(=N)N)C(=O)N[C@@H](CC(=O)O)C(=O)N[C@@H](Cc1ccccc1)C(=O)N[C@H](C(=O)N[C@@H](CCC(N)=O)C(=O)N[C@@H](Cc1c[nH]c2ccccc12)C(=O)N[C@@H](CC(C)C)C(=O)N[C@@H](CC(C)C)C(=O)N[C@@H](CCC(=O)O)C(=O)NCC(=O)NCC(=O)N1CCC[C@H]1C(=O)N[C@@H](CO)C(=O)N[C@@H](CO)C(=O)NCC(=O)N[C@@H](C)C(=O)N1CCC[C@H]1C(=O)N1CCC[C@H]1C(=O)N1CCC[C@H]1C(=O)N[C@@H](CO)C(N)=O)C(C)C [compound 102] (H-Y[Aib]QGTFTSDYSK([AEEA-γGlu-C20 diacid])LLDYMMQRDFVQWLLEGGPSSGAPPPS-NH2; N-terminus and C-terminus assumed)	–	–	–	–	–	–	scores of hepatocytes inflammation and NAS score, in words [1]: statistically reduced; body weight compared to vehicle-treated control, in words [1]: reduce body weight; liver enzymes and liver steatosis compared to vehicle-treated control, in words [1]: reduce liver enzymes and liver steatosis significantly; AUCinf/dose [2]: 672.93 ± 32.13 kg·h/L; half-life [2]: 586 ± 53.4 min
Y[Aib]QGTFTSDYSK([AEEA-AEEA-γGlu-C20])LLDYMMQ[αMeR]DFVQWLLEGGPSSGAPPPS-NH2 [SEQ ID NO. 108]	971	451	83	39	100	46	–
H[Aib]QGTFTSDYSKYLDYMMARDFVQWLIEGGPSSGAPPPSC [Peptide No. 5 (with C-terminal cysteine)]	–	–	–	–	–	–	EC50 (nM), cAMP assay [7]: 13.2 nM; EC50 (nM), cAMP assay [8]: 0.0605 nM
Y[Aib]QGTFTSDYSK([AEEA-AEEA-γGlu-C20])YLDYMMQ[αMeR]DFVQWLLEGGPSSGAPPPS-NH2 [SEQ ID NO. 107]	537	200	37	14	100	37	–
Y[Aib]QGTFTSDYSK([AEEA-AEEA-γGlu-C20])YLDYMMQ[αMeR]DFVKWLLEGGPSSGAPPPS-NH2 (not fully specified (residue 24); printed as YAibQGT FTSDY SK**YLD YMMQαR DFVB*W LLEGG PSSGA PPPS) [SEQ ID NO. 110]	272	105	29	11	100	39	–
